According to patent US20050119176A1 (BURNHAM INSTITUTE, published 2005):
Where no end group is shown, it is not given here. [ ]: non-standard residue; d: D form. 2Nal = N[C@@H](Cc1ccc2ccccc2c1)C(=O)O; d2Nal = N[C@H](Cc1ccc2ccccc2c1)C(=O)O; 2Thi = N[C@@H](Cc1cccs1)C(=O)O; Cha = N[C@@H](CC1CCCCC1)C(=O)O; d2Thi = N[C@H](Cc1cccs1)C(=O)O; dCha = N[C@H](CC1CCCCC1)C(=O)O

How the values were obtained:
[1] = biological target: GST-BIR2 (glutathione-S-transferase-BIR2 fusion protein) (human) (UniProt P98170); experiment: fluorescence polarization; 20 nM rhodamine-SMAC, GST-BIR2 from 0 to 495 nM
BIR3RING (human) = BIR3RING (human) (UniProt P98170); experiment: fluorescence polarization; 20 nM rhodamine-SMAC, BIR3RING titrated
GST-XIAP = GST-XIAP (human, UniProt P98170 1-497); experiment: cell-based or functional assay
Chain of GST-XIAP (P98170 whole entry): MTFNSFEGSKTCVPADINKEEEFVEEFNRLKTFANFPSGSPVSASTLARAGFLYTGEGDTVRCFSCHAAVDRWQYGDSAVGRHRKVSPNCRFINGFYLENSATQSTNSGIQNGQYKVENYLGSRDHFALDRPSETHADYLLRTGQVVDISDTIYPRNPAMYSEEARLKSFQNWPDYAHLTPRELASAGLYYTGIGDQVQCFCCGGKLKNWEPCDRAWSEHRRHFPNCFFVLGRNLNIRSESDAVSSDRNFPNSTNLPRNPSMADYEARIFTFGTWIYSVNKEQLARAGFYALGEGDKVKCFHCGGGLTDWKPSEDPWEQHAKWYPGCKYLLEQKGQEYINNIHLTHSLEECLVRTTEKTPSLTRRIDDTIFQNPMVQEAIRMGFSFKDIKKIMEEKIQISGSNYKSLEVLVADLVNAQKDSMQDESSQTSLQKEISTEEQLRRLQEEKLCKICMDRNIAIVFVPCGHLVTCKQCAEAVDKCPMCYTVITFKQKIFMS

Chain of GST-BIR2 (glutathione-S-transferase-BIR2 fusion protein) (human) (P98170 124-240): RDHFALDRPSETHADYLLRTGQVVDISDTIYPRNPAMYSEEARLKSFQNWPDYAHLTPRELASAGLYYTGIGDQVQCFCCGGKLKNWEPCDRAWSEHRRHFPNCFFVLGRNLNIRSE
Chain of BIR3RING (human) (P98170 243-497 limits assumed): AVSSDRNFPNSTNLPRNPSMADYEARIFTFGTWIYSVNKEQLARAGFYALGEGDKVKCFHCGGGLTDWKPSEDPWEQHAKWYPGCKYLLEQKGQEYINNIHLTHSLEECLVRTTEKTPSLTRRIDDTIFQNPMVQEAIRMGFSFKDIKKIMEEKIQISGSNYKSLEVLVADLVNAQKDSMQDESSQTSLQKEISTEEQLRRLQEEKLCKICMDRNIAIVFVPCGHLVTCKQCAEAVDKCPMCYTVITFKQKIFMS

Molecule	Kd [1]	Kd (BIR3RING (human))	ratio of Vmax for hydrolysis of Ac-DEVD-AFC with and without the peptide (caspase-3 + XIAP) (GST-XIAP)
rhodamine labeled SMAC (rhodamine-SMAC) of Example VII (peptide)	100 nM	80 nM	–
A[dW]W[2Thi] (also: Trp of TPI 1332 batch may retain formyl groups) [TPI 1332-47 / TPI 1352-47]	–	–	> 2.4
[2Nal][dCha]W[dW] [TPI 1352-66]	–	–	> 2.4
[2Nal][d2Thi][dF][dW] [TPI 1352-72]	–	–	> 2.4
[Cha][d2Nal]W[2Thi] (also: Trp may retain a formyl group) [TPI 1332-41]	–	–	> 2.4
AWW[2Thi] (also: Trp of TPI 1332 batch may retain formyl groups) [TPI 1332-1 / TPI 1352-1]	–	–	> 2.4
A[dW]W[2Thi] [TPI 1352-6]	–	–	> 2.4
